Results from patent US20200079833A1 (AstraZeneca / MedImmune, published 2020).
Starred links: 1 amine or outer side, 2 acyl side, 3 side chain; linkers in the order of their positions; H or OH if unused. Non-standard residues stand in square brackets, D forms with d. Groups on a side chain read outwards from the residue. Primed or numbered codes have the meaning given here. No end group written: not given here. *: point of attachment. Tyr(OMe) = COc1ccc(C[C@H](N[*:1])C(=O)[*:2])cc1; γGlu = O=C(O)[C@H](CCC(=O)[*:2])N[*:1]; Stearoyl = CCCCCCCCCCCCCCCCCC(=O)*; Palmitoyl = CCCCCCCCCCCCCCCC(=O)*; αMeF = C[C@](N)(Cc1ccccc1)C(=O)O; Myristoyl = CCCCCCCCCCCCCC(=O)*; αMeK = C[C@](N)(CCCCN)C(=O)O; Lauroyl = CCCCCCCCCCCC(=O)*; αMeS = C[C@](N)(CO)C(=O)O; Nle = CCCC[C@H](N)C(=O)O; PEG2′ = not defined here; Aib = CC(C)(N)C(=O)O

T1: glucose-dependent insulinotropic peptide (gastric inhibitory polypeptide) receptor (GIPR), primary cAMP assay (human, UniProt P48546 22-466)
T1 sequence (looked up): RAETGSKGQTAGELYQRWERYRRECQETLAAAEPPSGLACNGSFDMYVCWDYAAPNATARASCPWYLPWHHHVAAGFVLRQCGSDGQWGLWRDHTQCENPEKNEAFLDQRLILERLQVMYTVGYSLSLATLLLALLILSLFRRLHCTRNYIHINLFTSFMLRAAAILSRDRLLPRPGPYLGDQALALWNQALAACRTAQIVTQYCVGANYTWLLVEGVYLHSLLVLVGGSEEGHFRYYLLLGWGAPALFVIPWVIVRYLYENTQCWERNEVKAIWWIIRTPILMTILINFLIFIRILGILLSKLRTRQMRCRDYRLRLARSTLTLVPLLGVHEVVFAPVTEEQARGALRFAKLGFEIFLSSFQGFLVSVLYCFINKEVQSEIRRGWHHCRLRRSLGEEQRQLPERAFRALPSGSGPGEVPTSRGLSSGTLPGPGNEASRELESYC

T2: GLP-1R in the INS1e assay (UniProt P32301 22-463, limits assumed)
T2 sequence (looked up): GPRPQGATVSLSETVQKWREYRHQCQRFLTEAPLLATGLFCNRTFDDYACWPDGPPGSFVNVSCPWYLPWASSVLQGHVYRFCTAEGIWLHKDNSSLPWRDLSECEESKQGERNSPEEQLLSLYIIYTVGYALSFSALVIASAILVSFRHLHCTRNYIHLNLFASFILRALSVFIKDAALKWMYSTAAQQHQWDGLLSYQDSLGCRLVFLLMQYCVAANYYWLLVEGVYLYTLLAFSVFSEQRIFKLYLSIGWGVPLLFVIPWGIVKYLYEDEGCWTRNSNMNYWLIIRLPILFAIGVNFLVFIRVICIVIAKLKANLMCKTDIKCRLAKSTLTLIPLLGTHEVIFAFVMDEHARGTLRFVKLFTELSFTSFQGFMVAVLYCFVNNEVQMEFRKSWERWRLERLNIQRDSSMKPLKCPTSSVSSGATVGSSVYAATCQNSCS


Key:
Test in all cases: cell-based or functional assay
[1] = biological target: glucagon receptor (GCGR), primary cAMP assay (human, UniProt P47871 26-477)
Chain of glucagon receptor (GCGR), primary cAMP assay (P47871 26-477): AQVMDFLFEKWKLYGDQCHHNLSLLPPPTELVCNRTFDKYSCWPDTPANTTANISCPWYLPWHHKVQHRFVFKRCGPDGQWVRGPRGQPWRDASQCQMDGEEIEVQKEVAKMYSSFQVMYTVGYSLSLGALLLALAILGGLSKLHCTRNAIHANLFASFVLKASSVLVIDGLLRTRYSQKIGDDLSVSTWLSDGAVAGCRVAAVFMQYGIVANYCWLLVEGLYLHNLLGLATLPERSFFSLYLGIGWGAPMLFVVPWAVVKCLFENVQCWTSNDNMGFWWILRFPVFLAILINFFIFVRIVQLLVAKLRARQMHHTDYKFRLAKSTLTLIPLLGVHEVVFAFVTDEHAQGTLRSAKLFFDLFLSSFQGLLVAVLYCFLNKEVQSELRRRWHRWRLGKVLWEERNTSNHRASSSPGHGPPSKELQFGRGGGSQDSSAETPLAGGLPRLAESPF

[2] = biological target: T1, glucose-dependent insulinotropic …
[3] = biological target: GLP-1 receptor (GLP-1R), primary cAMP assay (human, UniProt P43220 24-463)
[4] = biological target: T2, GLP-1R in the INS1e assay

Binder | Primary assay EC50 (cAMP), n1 [1] [nM] | Primary assay EC50 (cAMP), n2 [1] [nM] | Primary assay EC50 (cAMP), n1 [2] [nM] | Primary assay EC50 (cAMP), n2 [2] [nM] | Primary assay EC50 (cAMP) Mean [3] [nM] | Primary assay EC50 (cAMP), n1 [3] [nM] | Primary assay EC50 (cAMP), n2 [3] [nM] | INS1e assay EC50 (cAMP) Mean [4] [nM] | INS1e assay EC50 (cAMP) n1 [4] [nM] | INS1e assay EC50 (cAMP) n2 [4] [nM]
H[Aib]EGS[αMeF]TSDV[αMeS]SK([PEG2′-PEG2′-γGlu-Lauroyl])LEGEAA[αMeK]EFIK([PEG2′-PEG2′-γGlu-Lauroyl])WVVEGG-NH2 [SEQ ID NO: 262] | 22.5 | 22.5 | 22.5 | 22.5 | 0.0054 | 0.00673 | 0.00414 | 0.552 | 0.7 | 0.403
H[Aib]EGS[αMeF]TSDV[αMeS]SK([PEG2′-PEG2′-γGlu-Lauroyl])LEGEAA[αMeK]EFIAK([PEG2′-PEG2′-γGlu-Lauroyl])VVEGG-NH2 [SEQ ID NO: 263] | 21.5 | 21.5 | 21.5 | 21.5 | 0.0012 | 0.000998 | 0.00145 | 0.132 | 0.12 | 0.144
H[Aib]EGS[αMeF]TSDV[αMeS]SK([PEG2′-PEG2′-γGlu-Lauroyl])LEGEAA[αMeK]EFIAWK([PEG2′-PEG2′-γGlu-Lauroyl])VEGG-NH2 [SEQ ID NO: 264] | 22.6 | 22.6 | 22.6 | 22.6 | 0.0128 | 0.0182 | 0.00737 | 1.03 | 0.963 | 1.1
H[Aib]EGS[αMeF]TSDV[αMeS]SK([PEG2′-PEG2′-γGlu-Palmitoyl])LEGEAA[αMeK]EFIK([PEG2′-PEG2′-γGlu-Palmitoyl])WVVEGG-NH2 [SEQ ID NO: 265] | 21.6 | 21.6 | 21.6 | 21.6 | 0.0336 | 0.0391 | 0.028 | 8.77 | 12.2 | 5.34
H[Aib]EGS[αMeF]TSDV[αMeS]SYK([PEG2′-PEG2′-γGlu-Lauroyl])EGEAA[αMeK]EFIK([PEG2′-PEG2′-γGlu-Lauroyl])WVVEGG-NH2 [SEQ ID NO: 268] | 22.2 | 22.2 | 22.2 | 22.2 | 0.0048 | 0.00446 | 0.00505 | 1.16 | 1.09 | 1.23
H[Aib]EGS[αMeF]TSDV[αMeS]SYK([PEG2′-PEG2′-γGlu-Lauroyl])EGEAA[αMeK]EFIAK([PEG2′-PEG2′-γGlu-Lauroyl])VVEGG-NH2 [SEQ ID NO: 269] | 22.8 | 22.8 | 22.8 | 22.8 | 0.0046 | 0.00401 | 0.00524 | 0.212 | 0.243 | 0.181
H[Aib]EGS[αMeF]TSDV[αMeS]SYK([PEG2′-PEG2′-γGlu-Lauroyl])EGEAA[αMeK]EFIAWK([PEG2′-PEG2′-γGlu-Lauroyl])VEGG-NH2 [SEQ ID NO: 270] | 22.3 | 22.3 | 22.3 | 22.3 | 0.0329 | 0.0293 | 0.0365 | 1.72 | 1.41 | 2.02
H[Aib]EGS[αMeF]TSDV[αMeS]SK([PEG2′-PEG2′-γGlu-Lauroyl])LEGEAA[αMeK]E[αMeF]IAK([PEG2′-PEG2′-γGlu-Lauroyl])VVEGG-NH2 [SEQ ID NO: 405] | 21.5 | 21.5 | 21.5 | 21.5 | 0.0039 | 0.00405 | 0.00366 | 0.116 | 0.11 | 0.121
H[Aib]EGS[αMeF]TSDV[αMeS]SK([PEG2′-PEG2′-γGlu-Lauroyl])LEGEAA[αMeK]E[Tyr(OMe)]IAK([PEG2′-PEG2′-γGlu-Lauroyl])VVEGG-NH2 [SEQ ID NO: 406] | 21.5 | 21.5 | 21.5 | 21.5 | 0.0023 | 0.00219 | 0.00231 | 0.094 | 0.101 | 0.0872
H[Aib]EGS[αMeF]TSDV[αMeS]SK([PEG2′-PEG2′-γGlu-Lauroyl])LEGEAA[αMeK]E[Nle]IAK([PEG2′-PEG2′-γGlu-Lauroyl])VVEGG-NH2 [SEQ ID NO: 407] | 21.5 | 21.5 | 21.5 | 21.5 | 0.002 | 0.00196 | 0.00201 | 0.104 | 0.113 | 0.0952
H[Aib]EGS[αMeF]TSDV[αMeS]SK([PEG2′-PEG2′-γGlu-Myristoyl])LEGEAA[αMeK]E[αMeF]IAK([PEG2′-PEG2′-γGlu-Myristoyl])VVEGG-NH2 [SEQ ID NO: 408] | 21.5 | 21.5 | 21.5 | 21.5 | 0.0089 | 0.00996 | 0.00789 | 0.412 | 0.376 | 0.448
H[Aib]EGS[αMeF]TSDV[αMeS]SK([PEG2′-PEG2′-γGlu-Palmitoyl])LEGEAA[αMeK]E[αMeF]IAK([PEG2′-PEG2′-γGlu-Palmitoyl])VVEGG-NH2 [SEQ ID NO: 409] | 21.5 | 21.5 | 21.5 | 21.5 | 0.0361 | 0.0395 | 0.0326 | 0.216 | 0.183 | 0.249
H[Aib]EGS[αMeF]TSDV[αMeS]SK([PEG2′-PEG2′-γGlu-Stearoyl])LEGEAA[αMeK]E[αMeF]IAK([PEG2′-PEG2′-γGlu-Stearoyl])VVEGG-NH2 [SEQ ID NO: 410] | 21.5 | 21.5 | 21.5 | 21.5 | 0.187 | 0.248 | 0.126 | 0.78 | 0.698 | 0.862
